Measured values published in publication PMC8603391 (European biophysics journal : EBJ, 2015).

What was measured:
[1] = biological target: T1, GST-My16Ank (uncleaved glutathione S-transferase fusion of the myosin 16 ankyrin domain) (Rattus norvegicus, UniProt Q9ERC1-1 1-402); assay: SPR
T1 sequence (looked up): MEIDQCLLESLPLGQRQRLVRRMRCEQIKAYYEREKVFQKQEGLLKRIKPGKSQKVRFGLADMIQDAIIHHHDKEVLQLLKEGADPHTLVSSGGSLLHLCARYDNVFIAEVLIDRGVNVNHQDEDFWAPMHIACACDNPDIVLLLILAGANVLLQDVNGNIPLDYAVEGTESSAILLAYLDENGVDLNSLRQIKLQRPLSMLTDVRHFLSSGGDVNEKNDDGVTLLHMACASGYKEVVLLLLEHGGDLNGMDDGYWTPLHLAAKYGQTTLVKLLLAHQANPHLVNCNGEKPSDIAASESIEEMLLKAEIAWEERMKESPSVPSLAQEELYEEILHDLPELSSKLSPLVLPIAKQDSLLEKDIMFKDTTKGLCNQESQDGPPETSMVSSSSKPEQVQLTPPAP

[2] = biological target: T2, Myosin 16 ankyrin domain (My16Ank), GST tag cleaved (Rattus norvegicus, UniProt Q9ERC1-1 1-402); assay: SPR
T2 sequence (looked up): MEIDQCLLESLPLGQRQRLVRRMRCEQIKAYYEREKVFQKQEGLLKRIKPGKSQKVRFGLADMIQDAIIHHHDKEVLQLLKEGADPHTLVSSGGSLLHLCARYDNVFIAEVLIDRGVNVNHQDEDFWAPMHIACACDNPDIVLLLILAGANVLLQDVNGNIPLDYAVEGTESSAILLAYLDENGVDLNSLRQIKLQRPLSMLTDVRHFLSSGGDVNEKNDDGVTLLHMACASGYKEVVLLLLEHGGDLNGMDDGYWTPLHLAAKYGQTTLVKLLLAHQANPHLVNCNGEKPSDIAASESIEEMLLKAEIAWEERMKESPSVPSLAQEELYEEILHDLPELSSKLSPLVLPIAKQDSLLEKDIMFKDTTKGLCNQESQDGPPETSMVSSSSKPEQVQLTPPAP

B1: recombinant His-tagged PP1cδ (protein phosphatase-1 catalytic subunit, δ isoform) (enzyme, UniProt P62140 1-327, looked up)
chain: MADGELNVDSLITRLLEVRGCRPGKIVQMTEAEVRGLCIKSREIFLSQPILLELEAPLKICGDIHGQYTDLLRLFEYGGFPPEANYLFLGDYVDRGKQSLETICLLLAYKIKYPENFFLLRGNHECASINRIYGFYDECKRRFNIKLWKTFTDCFNCLPIAAIVDEKIFCCHGGLSPDLQSMEQIRRIMRPTDVPDTGLLCDLLWSDPDKDVQGWGENDRGVSFTFGADVVSKFLNRHDLDLICRAHQVVEDGYEFFAKRQLVTLFSAPNYCGEFDNAGGMMSVDETLMCSFQILKPSEKKAKYQYGGLNSGRPVTPPRTANPPKKR
Ka [1]: 3.04e+06 M⁻¹
Kd [1]: 329 nM
koff [1]: 0.000473 s⁻¹
kon [1]: 1440 M⁻¹ s⁻¹
Ka [2]: 1.65e+06 M⁻¹
